Data: PMC9628034

Molecular target: apolipoprotein E, apoE4 isoform, of human cerebrospinal fluid (human (endogenous in CSF)) (UniProt P02649)
Assay: native gel or EMSA; blue-native PAGE 4-16% of unheated AD CSF; western blot with AB178479; dimer/monomer quotient from band intensities

ratio D/M (apoE dimer/monomer quotient): 0.24
Substance: apolipoprotein E, apoE4 isoform, of human cerebrospinal fluid (from UniProt P02649 19-317) (natural protein)
